Assay results from US20240327504A1 (MABLOC, published 2024).

What was measured:
Test in all cases: cell-based or functional assay
[1] = target: T1, SARS-CoV-2 Spike, Delta variant (SARS-CoV-2, UniProt P0DTC2 14-1273)
[2] = target: SARS-CoV-2 Spike, Eta variant (SARS-CoV-2, UniProt P0DTC2 14-1273)
[3] = target: SARS-CoV-2 Spike, Kappa variant (SARS-CoV-2, UniProt P0DTC2 14-1273)
[4] = target: SARS-CoV-2 Spike, Zeta variant (SARS-CoV-2, UniProt P0DTC2 14-1273)
[5] = target: T2, SARS-CoV-2 Spike, Beta variant (SARS-CoV-2, UniProt P0DTC2 14-1273)
[6] = target: SARS-CoV-2 Spike, Epsilon variant (SARS-CoV-2, UniProt P0DTC2 14-1273)
[7] = target: SARS-CoV-2 Spike, Lambda variant (SARS-CoV-2, UniProt P0DTC2 14-1273)
[8] = target: T3, SARS-CoV-2 Spike, Alpha variant (SARS-CoV-2, UniProt P0DTC2 14-1273)
[9] = target: SARS-CoV-2 Spike, Iota variant (SARS-CoV-2, UniProt P0DTC2 14-1273)
[10] = target: T4, SARS-CoV-2 Spike, Gamma variant (SARS-CoV-2, UniProt P0DTC2 14-1273)
[11] = target: T1, SARS-CoV-2 Spike, Delta variant; remark: listed apart in the source
[12] = target: T2, SARS-CoV-2 Spike, Beta variant; remark: listed apart in the source
[13] = target: T3, SARS-CoV-2 Spike, Alpha variant; remark: listed apart in the source
[14] = target: T4, SARS-CoV-2 Spike, Gamma variant; remark: listed apart in the source

B1: MR22950 antibody (antibody, V domains shown)
VH: QLQLQESGPGLVKPSEPLSLTCAVSGGFIGTNWWTWIRQPPGKGLEWIGRISGSVGSTSYNPSLKSRVTISRDTSKNQFSLNLNSLTAADTAVYYCAREGRLDTLDWGQGVLVIVSS
VL: QSVLTQPPSASEAARKSVTISCSGSSSNIGSYSVSWYQQFPGTPPKLLIYFNDQRASGVSDRFSGSKSGTSASLAISGLQTEDEADYYCAGWDDSLNGVLFGGGTRLTVLG
[1]
  Neut50: 7.8 ng/mL
[2]
  Neut50: 16 ng/mL
[3]
  Neut50: 15 ng/mL
[4]
  Neut50: 3.8 ng/mL
[5]
  Neut50: 33 ng/mL
[6]
  Neut50: 10.8 ng/mL
[7]
  Neut50: 19 ng/mL
[8]
  Neut50: 7.3 ng/mL
[9]
  Neut50: 0.5 ng/mL
[10]
  Neut50: 105 ng/mL
[11]
  Neut50 (ng/mL), authentic live virus, plaques on Vero cells: 20.3 ng/mL
[12]
  Neut50 (ng/mL), authentic live virus, plaques on Vero cells: 6.9 ng/mL
[13]
  Neut50 (ng/mL), authentic live virus, plaques on Vero cells: 4.7 ng/mL
[14]
  Neut50 (ng/mL), authentic live virus, plaques on Vero cells: 12.7 ng/mL
